What all share (assay): fluorescence anisotropy
A general note: In fluorescence polarisation assays a small probe gives low polarisation when free and higher when bound to something large.

Data set [1] has as its target T1, CPSF30-5F (five CCCH domains) (Bos taurus, UniProt O19137 33-170).
Data set [2] addresses T1, CPSF30-5F (five CCCH domains). The source holds these as a separate data set.
For data set [3] the target is unchanged. This is another data set of the same source.
The target is the same in data set [4]. The source holds these as a separate data set.
For data set [5] the target is unchanged. This is another data set of the same source.
Data set [6] shares this target. The source holds these as a separate data set.
Data set [7] shares this target. The source holds these as a separate data set.
The target is the same in data set [8]. This is another data set of the same source.
Data set [9] shares this target. This is another data set of the same source.
Data set [10] addresses CPSF30-FL (five CCCH + CCHC zinc knuckle) (Bos taurus, UniProt O19137 1-243).
Data set [11] concerns the target T1, CPSF30-5F (five CCCH domains). This is another data set of the same source.

Where two headings read alike, the source gives them in different places.

T1 sequence (O19137 33-170): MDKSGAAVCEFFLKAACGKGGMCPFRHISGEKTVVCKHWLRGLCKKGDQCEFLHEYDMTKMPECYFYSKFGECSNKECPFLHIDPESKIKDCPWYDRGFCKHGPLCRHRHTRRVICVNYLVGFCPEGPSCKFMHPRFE
Sequence of CPSF30-FL (five CCCH + CCHC zinc knuckle) (O19137 whole entry, the tested form may be a part): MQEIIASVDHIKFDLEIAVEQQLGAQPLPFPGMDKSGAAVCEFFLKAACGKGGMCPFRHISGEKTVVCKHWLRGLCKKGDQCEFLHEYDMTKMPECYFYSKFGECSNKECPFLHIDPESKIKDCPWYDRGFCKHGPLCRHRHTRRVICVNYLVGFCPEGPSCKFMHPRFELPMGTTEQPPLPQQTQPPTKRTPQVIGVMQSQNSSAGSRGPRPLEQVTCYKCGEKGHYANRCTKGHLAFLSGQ

With UCUCACUUUUCGAAUAAAUCGCAUGCUUAU (ssRNA) [Least freq fl (UCG flanks)], in [1], the “apparent K (half saturation)” value is 309 ± 25 nM.

Turning to UCUCACUUUAAUAAUAGAAAUCAUGCUUAU (ssRNA) [LUPUS], the binding result in data set [2] is “no binding”.

Take AUUAUUUAUUUAUUUA (ssRNA) [ARE-16]: the “apparent K (half saturation)” value in data set [3] was found to be 1000 ± 82 nM.

As to GUGAUUAUUUAUUAUUUAUUUAUUAUUUAUUUAUUUAG (ssRNA) [ARE-38], the “apparent K (half saturation)” value in data set [4] worked out at 141 ± 5 nM.

For the molecule UCUCACUUUAAUAAUGAAAAUCAUGCUUAU (ssRNA) [IPEX], the binding result in data set [2] is listed as “no binding”.

As for AUUUAUUUAUUAUUUAUUUAUUUA (ssRNA) [ARE-24], in [5], the “apparent K (half saturation)” value stood at 265 ± 31 nM.

Take UCUCACUUUAAUAGUAAAAAUCAUGCUUAU (ssRNA) [P2AtoG]: the “apparent K (half saturation)” value in data set [6] was determined as 376 ± 12 nM.

UCUCACUUUAAUAAUAAGAAUCAUGCUUAU (ssRNA) [ATHA (α-thalassemia)]: the “apparent K (half saturation)” value in data set [7] was found to be 135 ± 6.3 nM.

For UCUCACUUUAAUAUUAAGAAUCAUGCUUAU (ssRNA) [FABRY], in data set [2], the binding result is “no binding”.

With UCUCACUUUAAUAAUCAAAAUCAUGCUUAU (ssRNA) [P4AtoC], in [6], the “apparent K (half saturation)” value amounted to 335 ± 38 nM.

In the case of UCUCACUUUAAUAAUACAAAUCAUGCUUAU (ssRNA) [P5AtoC], the “apparent K (half saturation)” value in data set [8] was found to be 278 ± 29 nM.

UCUCACUUUAAUAAUAACAAUCAUGCUUAU (ssRNA) [P6AtoC]: the “apparent K (half saturation)” value in data set [6] amounted to 309 ± 26 nM.

As for UUUAUUAUUUAUUUAUUUAG (ssRNA) [ARE-20], the “apparent K (half saturation)” value in data set [9] was found to be 499 ± 37 nM.

In the case of UCUCACUUUAAUAUUAAAAAUCAUGCUUAU (ssRNA) [P2AtoU], the “apparent K (half saturation)” value in data set [8] amounted to 207 ± 0.6 nM.

With UUAUUAUUUAUUUAUUUA (ssRNA) [ARE-18], the “apparent K (half saturation)” value in data set [9] stood at 671 ± 49 nM.

Turning to UCUCACUUUAAAAAUAAAAAACAUGCUUAU (ssRNA) [Most freq fl (AAA flanks)], the “apparent K (half saturation)” value in [7] came out at 226 ± 1.6 nM.

On to CACUUUAAUAAUAAAAAUCAUGCU (ssRNA) [α-syn24 (labeled)], for which the binding result in [10] was “binds”.

Turning to UUUAUUAUUUAUUUAUUAUUUAUUUAUUUA (ssRNA) [ARE-30], the “apparent K (half saturation)” value in data set [11] is 163 ± 10 nM.

UCUCACUUUAAUAACAAAAAUCAUGCUUAU (ssRNA) [BTHA (β-thalassemia)]: in data set [9], the “apparent K (half saturation)” value worked out at 148 ± 9 nM.
